# From US10654918B2, “Inflammatory disease diagnosis and methods of treatment using down-regulators of lipopolysaccharide-responsive beige-like anchor” (University of South Florida, priority 2013, dated 2020)
# B1: LRBA shRNA: shRNA plasmid against LRBA; targeted LRBA sequence SEQ ID No. 15 GGGATATTGTAGAAACTGTCTTT (nucleic acid)
# sense: GGGATATTGTAGAAACTGTCTTTTTCAAGAGAAAAGACAGTTTCTACAATATCCCTTTTTT
# antisense: CCCTATAACATCTTTGACAGAAAAAGTTCTCTTTTCTGTCAAAGATGTTATAGGGAAAAAA
# Assays:
# Assay type in all cases: cell-based, human
# [1] = tested on: Raji B cells; assay: Cytokines of Raji and Raji-9 cells treated with LPS (ELISA, CBA)
# Experimental: FIG. 21 are graphs showing knockdown of LRBA increases the TNFα levels in Raji B (Burkitt's lymphoma) cells. Raji B cells and Raji-9 (stably transfected with shRNA plasmid against LRBA) B cells were treated with LPS (1 μg/ml). The TNFa concentrations were measured by Human TNFα DuoSet ELISA kit (R&D) following the manufacture's instruction. A. Culture supernatant; B. Cell lysate. #=p<0.07, *=p<0.05, **=p<0.005.
# FIGS. 48(A)-(I). Knockdown of LRBA influences the levels of cytokines. A. Raji cells (LRBA WT or KD) were seeded in a 24 well plate wells and stimulated with LPS for 15 min (1), 30 min (2) and 1 hr (3) with 0.26 million cells in each well or for 2 h (4), 4 h (5) and 24 h (6) with 0.2 million cells in each well, 0.2 million of cells were plated in each well. ELISA and CBA assays of TNFα and IL-10. Cells were treated as in A. 0.2×10^6 cells, timepoint. 500 uL total volume medium. Duoset ELISA human TNF-a kit protocol was followed for cell culture supernatant. Blues: Raji (♦); Red: Raji9 (▪). Data are representative of 2 to 5 separate experiments.
# Cell culture supernatants were directly used to detect human Th1 and Th2 cytokines (IL-2, IL-4, IL-5, IL-6, IL-10, TNFα and IFN-γ) using the human Th1/Th2 cytokine bead-array kit (BD Biosciences, San Jose, Calif.) according to the manufacturer's instructions. The TNF[…] concentrations were also measured by Human TNF[…] DuoSet ELISA kit (R&D, Catalog #DY210).
# [2] = tested on: NF-κB; assay: NF-κB luciferase reporter and phospho-NFκB flow cytometry in Raji cells with LRBA knockdown
# Source text: (§1) FIG. 45A-D. Knockdown of LRBA deregulates NFκB. (A) Knockdown of LRBA increases NFκB luciferase activity. An NFκB luciferase reporter was used to measure the NFκB transcription activity. The data are shown as scatter with bar graph of mean with standard error of mean (SEM). (B) Knockdown of LRBA increases phospho-NFκB. The Phosflow kit including Cytofix Fixation Buffer, Phosflow Perm Buffer III and Stain Buffer (BD) and phospho-antibodies, NFκB p65 (pS529) PE-Cy7 were used for the intracellular staining following the company's instruction. For each samples, 50,000 cells were recorded for the FACS assay. (C) A549 cells were stably transfected with LRBA shRNA knockdown plasmid and several clones were picked up. […]
# FIGS. 46(A) and (B). […] NFκB luciferase activity was measured at each time point for both cell lines as in A. RLU: Relative Light Units. […]
# NF-κB is the central regulator of the immune system and plays a pivotal role in inflammation and immune responses. […] Raji cells were stimulated with LPS for different times from zero to several hours, and the NF-κB activity was measured by NF-κB luciferase reporter. […]
# Ready-To-Glow™ NF-κB Secreted Luciferase Reporter System (Clontech) and Firefly Luciferase Assay Kit (Biotium, Calif., USA) were used following the manufacture's instruction.
# [3] = tested on: NFκB; assay: NFκB luciferase activity in A549 clones with LRBA shRNA knockdown; details: A549 clones with different knockdown levels, LPS 10 μg/ml; dose-dependent
# Source text: as §1, with “up. Half million of cells were seeded in a well of a 24 well plate and incubated overnight, then stimulated with LPS (10 μg/ml) for certain time. Luciferase assay Biotium. NFκB luciferase activity is inversely dose-dependent on the LRBA levels in A549 cells with different levels of LRBA knockdown judged by the GFP levels of the cells stably transfected with the LRBA shRNA/GFP construct. (D) LRBA KD#3, LRBA KD#4 and LRBA KD#5 clones express different levels of GFP expression from low to high. The GFP expression levels can be an indicator of shRNA expression levels and are inversely related to the levels of LRBA.” for “up.”
molecule,measurement,setting,value
B1,TNFα levels in cell culture supernatants and cell lysates (ELISA),"[1]; LPS stimulation for 15 min to 24 h, vs untransfected Raji B cells",significantly increased
same,secreted levels of IL-10 (CBA),"[1]; Raji cells, LPS",significantly increased
same,secreted levels of TNFα (CBA),"[1]; Raji cells, LPS",significantly increased
same,"phospho-NFκB (pS529), flow cytometry",[2]; Raji cells,increases
same,average levels of the NF-κB activity (luciferase reporter),"[2]; Raji cells stimulated with LPS, zero to several hours",higher
same,NFκB luciferase activity,[3],increases
